Article PMC3228830, “Targeted Proteolysis of Plectin Isoform 1a Accounts for Hemidesmosome Dysfunction in Mice Mimicking the Dominant Skin Blistering Disease EBS-Ogna” (PLoS Genetics, 2011)

Target: the molecule itself
Assay: SEC-MALS; Superose 6 10/300 GL column, 0.5 ml/min, protein 2 mg/ml, load 75 ul

B1: His-tagged wild-type plectin rod domain (pNV10) (domain or fragment)
chain: IKFISETLRRMEEEERLAEQQRAEERERLAEVEAALEKQRQLAEAHAQAKAQAELEAQELQRRMQEEVARREEAAVDAQQQKRSIQEELQHLRQSSEAEIQAKAQQVEAAERSRMRIEEEIRVVRLQLETTERQRGGAEGELQALRARAEEAEAQKRQAQEEAERLRRQVQDESQRKRQAEAELALRVKAEAEAAREKQRALQALDELRLQAEEAERRLRQAEAERARQVQVALETAQRSAEVELQSKRASFAEKTAQLERTLQEEHVTVAQLREEAERRAQQQAEAERAREEAERELERWQLKANEALRLRLQAEEVAQQKSLAQADAEKQKEEAEREARRRGKAEEQAVRQRELAEQELEKQRQLAEGTAQQRLAAEQELIRLRAETEQGEQQRQLLEEELARLQHEATAATQKRQELEAELAKVRAEMEVLLASKARAEEESRSTSEKSKQRLEAEAGRFRELAEEAARLRALAEEAKRQRQLAEEDAARQRAEAERVLTEKLAAISEATRLKTEAEIALKEKEAENERLRRLAEDEAFQRRRLEEQAALHKADIEERLAQLRKASESELERQKGLVEDTLRQRRQVEEEIMALKVSFEKAAAGKAELELELGRIRSNAEDTMRSKEQAELEAARQRQLAAEEEQRRREAEERVQRSLAAEEEAARQRKVALEEVERLKAKVEEARRLRERAEQESARQLQLAQEAAQKRLQAEEKAHAFVVQQREEELQQTLQQEQNMLDRLRSEAEAARRAAEEAEEAREQAEREAAQSRKQVEEAERLKQSAEEQAQAQAQAQAAAEKLRKEAEQEAARRAQAEQAALKQKQAADAEMEKHKKFAEQTLRQKAQVEQELTTLRLQLEETDHQKSILDEELQRLKAEVTEAARQRSQVEEELFSVRVQMEELGKLKARIEAENRALILRDKDNTQRFLEEEAEKMKQVAEEAARLSVAAQEAARLRQLAEEDLAQQRALAEKMLKEKMQAVQEATRLKAEAELLQQQKELAQEQARRLQEDKEQMAQQLVEETQGFQRTLEAERQRQLEMSAEAERLKLRMAEMSRAQARAEEDAQRFRKQAEEIGEKLHRTELATQEKVTLVQTLEIQRQQSDHDAERLREAIAELEREKEKLKQEAKLLQLKSEEMQTVQQEQILQETQALQKSFLSEKDSLLQRERFIEQEKAKLEQLFQDEVAKAKQLREEQQRQQQQMEQEKQELMASMEEARRRQREAEEGVRRKQEELQHLEQQRQQQEKLLAEENQRLRERLQRLEEEHRAALAHSEIATT
stoichiometry N: 2
